Test results taken from article PMC11148069 (2024).

T1: recombinant Xenopus Nup93 target (BLI) (Xenopus, UniProt Q7ZX96 1-820)
T1 chain: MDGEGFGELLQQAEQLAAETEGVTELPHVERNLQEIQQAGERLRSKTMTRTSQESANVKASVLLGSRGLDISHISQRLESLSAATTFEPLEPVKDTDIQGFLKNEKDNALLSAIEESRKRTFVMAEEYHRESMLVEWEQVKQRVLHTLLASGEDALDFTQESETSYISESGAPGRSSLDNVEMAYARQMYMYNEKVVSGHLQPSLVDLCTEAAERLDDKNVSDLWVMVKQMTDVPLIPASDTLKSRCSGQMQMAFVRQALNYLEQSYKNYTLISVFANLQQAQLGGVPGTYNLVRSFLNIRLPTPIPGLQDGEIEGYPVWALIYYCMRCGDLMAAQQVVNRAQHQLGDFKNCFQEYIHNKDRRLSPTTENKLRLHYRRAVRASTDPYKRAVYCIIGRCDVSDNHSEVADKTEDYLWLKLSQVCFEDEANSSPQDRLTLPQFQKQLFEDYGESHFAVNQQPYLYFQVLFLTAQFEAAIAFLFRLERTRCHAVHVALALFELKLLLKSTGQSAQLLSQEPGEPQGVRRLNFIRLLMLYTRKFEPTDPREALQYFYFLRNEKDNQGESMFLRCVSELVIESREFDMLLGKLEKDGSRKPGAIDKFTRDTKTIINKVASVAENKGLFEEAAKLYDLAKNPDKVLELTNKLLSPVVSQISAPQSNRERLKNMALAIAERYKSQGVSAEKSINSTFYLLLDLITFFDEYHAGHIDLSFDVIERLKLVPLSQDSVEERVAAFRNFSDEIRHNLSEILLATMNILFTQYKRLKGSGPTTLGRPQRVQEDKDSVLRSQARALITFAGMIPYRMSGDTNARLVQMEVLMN

T2: recombinant human Nup98 target (BLI) (human, UniProt P52948 1-880)
T2 chain: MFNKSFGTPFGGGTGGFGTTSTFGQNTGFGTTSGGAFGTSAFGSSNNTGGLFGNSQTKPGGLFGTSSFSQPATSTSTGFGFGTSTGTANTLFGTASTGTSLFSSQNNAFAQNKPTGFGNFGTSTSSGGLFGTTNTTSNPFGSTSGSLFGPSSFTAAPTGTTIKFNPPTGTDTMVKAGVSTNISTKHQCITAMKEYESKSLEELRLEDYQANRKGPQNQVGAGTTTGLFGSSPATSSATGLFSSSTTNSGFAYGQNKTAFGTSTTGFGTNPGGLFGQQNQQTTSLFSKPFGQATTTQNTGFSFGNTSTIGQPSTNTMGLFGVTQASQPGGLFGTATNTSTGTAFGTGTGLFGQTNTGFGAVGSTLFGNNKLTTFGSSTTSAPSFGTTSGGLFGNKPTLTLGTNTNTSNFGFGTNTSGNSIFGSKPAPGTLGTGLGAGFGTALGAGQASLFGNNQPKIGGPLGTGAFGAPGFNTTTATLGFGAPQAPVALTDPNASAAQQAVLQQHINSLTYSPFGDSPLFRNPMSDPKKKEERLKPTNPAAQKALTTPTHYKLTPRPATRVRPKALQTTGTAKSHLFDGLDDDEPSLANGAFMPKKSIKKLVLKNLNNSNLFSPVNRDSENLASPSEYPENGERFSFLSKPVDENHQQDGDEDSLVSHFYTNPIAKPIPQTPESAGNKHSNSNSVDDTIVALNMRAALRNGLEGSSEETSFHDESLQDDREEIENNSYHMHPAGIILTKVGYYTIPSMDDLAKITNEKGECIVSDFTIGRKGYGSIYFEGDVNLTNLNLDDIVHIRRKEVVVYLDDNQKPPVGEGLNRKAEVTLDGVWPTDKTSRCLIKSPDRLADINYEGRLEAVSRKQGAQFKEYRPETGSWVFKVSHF

T3: recombinant Xenopus Nup98 target (BLI) (Xenopus)
T3 chain: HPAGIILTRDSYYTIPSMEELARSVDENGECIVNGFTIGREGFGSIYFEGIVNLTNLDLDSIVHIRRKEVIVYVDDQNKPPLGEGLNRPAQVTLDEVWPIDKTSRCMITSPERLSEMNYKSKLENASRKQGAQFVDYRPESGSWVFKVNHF

T4: Xenopus Nup35, endogenous (Xenopus (endogenous in egg extract))
T4 chain: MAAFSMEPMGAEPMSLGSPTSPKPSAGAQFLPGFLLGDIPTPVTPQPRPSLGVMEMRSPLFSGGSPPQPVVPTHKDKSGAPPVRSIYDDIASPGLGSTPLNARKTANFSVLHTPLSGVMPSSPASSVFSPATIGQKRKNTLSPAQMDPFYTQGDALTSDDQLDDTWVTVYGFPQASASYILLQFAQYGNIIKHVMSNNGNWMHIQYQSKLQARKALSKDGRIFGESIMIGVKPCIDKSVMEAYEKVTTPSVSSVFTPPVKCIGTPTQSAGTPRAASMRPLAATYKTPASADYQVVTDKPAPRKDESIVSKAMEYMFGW

T5: human Nup35, endogenous (human (endogenous in HeLa), UniProt Q8NFH5 1-326)
T5 chain: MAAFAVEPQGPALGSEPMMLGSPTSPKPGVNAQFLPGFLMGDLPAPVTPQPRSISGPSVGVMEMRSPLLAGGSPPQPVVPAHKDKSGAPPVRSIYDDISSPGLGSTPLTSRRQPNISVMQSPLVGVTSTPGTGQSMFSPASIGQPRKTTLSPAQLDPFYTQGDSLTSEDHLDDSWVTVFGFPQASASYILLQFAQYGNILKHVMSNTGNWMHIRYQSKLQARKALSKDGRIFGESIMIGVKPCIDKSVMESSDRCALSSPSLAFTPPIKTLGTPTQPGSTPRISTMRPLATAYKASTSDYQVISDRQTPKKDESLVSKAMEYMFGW

B1: xNup93-Nb2t (VHH)
VHH: DVQLVESGGGLVQPGGSLRLSCVASGFTFSRVGMGWVRQAPGKGLEWVSDINASGGTGYADSVKGRFAISRDNAKNTLYLQMNRLKPEDTAVYYCAKMMDTAMIEAGIIKPAGQGTQVTVSS
B2: recombinant human Nup93 target (BLI) (natural protein)
chain: MDTEGFGELLQQAEQLAAETEGISELPHVERNLQEIQQAGERLRSRTLTRTSQETADVKASVLLGSRGLDISHISQRLESLSAATTFEPLEPVKDTDIQGFLKNEKDNALLSAIEESRKRTFGMAEEYHRESMLVEWEQVKQRILHTLLASGEDALDFTQESEPSYISDVGPPGRSSLDNIEMAYARQIYIYNEKIVNGHLQPNLVDLCASVAELDDKSISDMWTMVKQMTDVLLTPATDALKNRSSVEVRMEFVRQALAYLEQSYKNYTLVTVFGNLHQAQLGGVPGTYQLVRSFLNIKLPAPLPGLQDGEVEGHPVWALIYYCMRCGDLLAASQVVNRAQHQLGEFKTWFQEYMNSKDRRLSPATENKLRLHYRRALRNNTDPYKRAVYCIIGRCDVTDNQSEVADKTEDYLWLKLNQVCFDDDGTSSPQDRLTLSQFQKQLLEDYGESHFTVNQQPFLYFQVLFLTAQFEAAVAFLFRMERLRCHAVHVALVLFELKLLLKSSGQSAQLLSHEPGDPPCLRRLNFVRLLMLYTRKFESTDPREALQYFYFLRDEKDSQGENMFLRCVSELVIESREFDMILGKLENDGSRKPGVIDKFTSDTKPIINKVASVAENKGLFEEAAKLYDLAKNADKVLELMNKLLSPVVPQISAPQSNKERLKNMALSIAERYRAQGISANKFVDSTFYLLLDLITFFDEYHSGHIDRAFDIIERLKLVPLNQESVEERVAAFRNFSDEIRHNLSEVLLATMNILFTQFKRLKGTSPSSSSRPQRVIEDRDSQLRSQARTLITFAGMIPYRTSGDTNARLVQMEVLMN
B3: xhNup98-Nb2i, biotinylated for BLI (VHH)
VHH: QVQLVESGGGLAKPGGSLRLSCVATGTFRSMEDVGWYRQAPGKDRELVAEITTLGKVTYADSVKGRFTISRDDAKNAVYLQMSDLKSEDTAVYYCNIEADQTKGIGYVVYPYWGQGTRVTVSS
modifications: Biotin-[PEG]3-maleimide on two ectopic cysteines
B4: xhNup98-Nb3i (VHH)
VHH: QVQLVESGGGLVQAGGSLRLSCAASGRTFSTYAMGWFRQAPGKEREFVSACSWSGGITRYADSVKGRFTISRDNAKNTVYLQMNSLKPEDTAVYYCASAASSAAYSGAYYYTSYYDYWGQGTQVTVSS
B5: xNup98-Nb1t (as added in the binding assay of Fig. 11C) (VHH)
VHH: QVQLVESGGGPVEAGGSLRLSCAASGRSFSNSVMAWFRQAPGKEREFLSVLNWSSGRTSIADSVKGRFTMSRDPAKITVYLQMNGLKPEDTAVYYCAASNRGSLYTLDNQNRYEDWGQGTQVTVSS
B6: xhNup35-Nb1t (VHH)
VHH: QVQLVESGGGLVQAGGSLRLSCVGTGNISSAYTMAWYRQAAGKEREVVAGILNGGSTHYADSVKGRFTISRDNAKNTVYLQMNSLQPEDTGVYCCHVVIESTRFVYDHYWGQGTRVTVSS
B7: xhNup93-Nb4i, biotinylated for BLI (VHH)
VHH: QVQLVESGGGVVQTGDSLMLSCTVSGHTIDNWAMGWFRQTPRKQREFVAAIDKRGTGAIYGNSVKGRFTVSRDNAKNMVYLRMNSLKPEDTAVYFCAVDQLNAGLGDVSYDYDYWGQGTQVTVSS
modifications: Biotin-[PEG]3-maleimide on two ectopic cysteines

Columns and labels:
Experiment in all cases: BLI
[1] = molecular target: T1, recombinant Xenopus Nup93 target (BLI)
[2] = molecular target: xhNup93-Nb3t
[3] = molecular target: T2, recombinant human Nup98 target (BLI)
[4] = molecular target: T3, recombinant Xenopus Nup98 target (BLI)
[5] = molecular target: T4, Xenopus Nup35, endogenous
[6] = molecular target: T5, human Nup35, endogenous
[7] = molecular target: B2

Row | Binder | Kd [3] [nM] | Kd [4] [nM] | further results
1 | B1 |  |  | Kd [1]: 4 nM
2 | B2 |  |  | Kd [2]: 1 nM
3 | B3 | 0.02 | < 0.01 | 
4 | B4 | < 0.01 | < 0.01 | 
5 | B5 | > 100 | 1.7 | 
6 | B6 |  |  | Kd [5]: 0.5 nM; Kd [6]: 0.8 nM
7 | B7 |  |  | Kd [1]: < 0.01 nM; Kd [7]: 3 nM
